This is an account of results in patent US20090170750A1 (Novo Nordisk, published 2009).

Assay [1] has as its target human IGF-1 receptor (human) (UniProt P08069). Description: competition with 125I-IGF-1 (SPA).
Assay [2] concerns the target purified recombinant human insulin receptor-exon 11 (human) (UniProt P06213). Nature of the assay: competition with 125I-insulin (SPA).
Assay [3] addresses T1, purified recombinant human insulin receptor-exon 11 (human, UniProt P06213-2 28-1370, limits assumed).
T1 construct: also called IR
Description: competition with 125I-insulin (SPA). As for the experimental part:
A total of 100 μl was then added and a dilution series is made from appropriate samples. To the dilution series was then added 100 μl of reagent mix and the samples were incubated for 16 hours while gently shaken. The phases were the then separated by centrifugation for 1 min and the plates counted in a Topcounter. The binding data were fitted using the nonlinear regression algorithm in the GraphPad Prism 2.01 (GraphPad Software, San Diego, Calif.).

Where a chain is given by its changes, count along the chain named. Names and notes keep the numbering of the source. Bridges are numbered along the chain shown (N, C = ends). Where no end group is shown, it is not given here.

“single-chain insulin with connecting peptide RGSSGK (SEQ ID NO:114), no PAK number printed (from UniProt P01308 25-53; P01308 90-110) (ligand)” gave a Human IGF-1 receptor binding relative to human insulin in assay [1] of 0.5%. Also, the IR, binding relative to human insulin in assay [2] stood at 54%. Take “single-chain insulin PAK 1709, connecting peptide VGRSSGK (SEQ ID NO:105) (from UniProt P01308 25-53; P01308 90-110) (ligand)”: the Human IGF-1 receptor binding relative to human insulin in assay [1] amounted to 0.5%.

For the molecule “single-chain insulin PAK 1687046, connecting peptide VGSMSGK (from UniProt P01308 25-53; P01308 90-110) (ligand)”, in assay [1], the Human IGF-1 receptor binding relative to human insulin came to 0.1%. “single-chain insulin PAK 1766, connecting peptide VGSSSGK (from UniProt P01308 25-53; P01308 90-110) (ligand)”: the Human IGF-1 receptor binding relative to human insulin in assay [1] worked out at 0.05%. Same read-out and setting: to “single-chain insulin PAK 1688011, connecting peptide VGLSSGK (from UniProt P01308 25-53; P01308 90-110) (ligand)” belongs 0.1%; to “single-chain insulin with connecting peptide VGHSSGK (SEQ ID NO:108), no PAK number printed (from UniProt P01308 25-53; P01308 90-110) (ligand)”, 0.15%. The molecule “single-chain insulin B(1-29)-TRLSQGR-A(1-21) (from UniProt P01308 25-53; P01308 90-110) (ligand)” gave a Human IGF-1 receptor binding in assay [1] of 0.05%.

Molecule “single-chain insulin PAK 1638077, connecting peptide VGSSRGK (from UniProt P01308 25-53; P01308 90-110) (ligand)” gave a Human IGF-1 receptor binding relative to human insulin in assay [1] of 0.1%. As for “single-chain insulin PAK 1688007, connecting peptide VGYSSGK (from UniProt P01308 25-53; P01308 90-110) (ligand)”, in assay [1], the Human IGF-1 receptor binding relative to human insulin came to 0.2%. With “single-chain insulin PAK 1891, connecting peptide TGLGSGQ [B10A_A18Q] (from UniProt P01308 25-53; P01308 90-110) (ligand)”, in assay [2], the IR, binding relative to human insulin worked out at 34%.

For “single-chain insulin PAK 1864, connecting peptide TGLGSGK [B3K_A18Q_A21G] (from UniProt P01308 25-53; P01308 90-110) (ligand)”, in assay [2], the IR, binding relative to human insulin is 301%. Same read-out and setting: to “single-chain insulin PAK 1769015, connecting peptide EVGSSSGK [A18Q_A21G] (from UniProt P01308 25-53; P01308 90-110) (ligand)” belongs 42%; to “single-chain insulin PAK 1817, connecting peptide AGRGSGK [A21G] (from UniProt P01308 25-53; P01308 90-110) (ligand)”, 63%. For “single-chain insulin PAK 1688028, connecting peptide VGMSSGK (SEQ ID NO:106) (from UniProt P01308 25-53; P01308 90-110) (ligand)”, the Human IGF-1 receptor binding relative to human insulin in assay [1] came out at 0.2%. On to “single-chain insulin PAK 1733, connecting peptide VGSSSGK [A21G] (from UniProt P01308 25-53; P01308 90-110) (ligand)”, for which the IR, binding relative to human insulin in assay [2] came to 42%. In assay [1], “single-chain insulin B(1-29)-TRSSNGR-A(1-21) (from UniProt P01308 25-53; P01308 90-110) (ligand)” registered a Human IGF-1 receptor binding of 0.1%. On to “single-chain insulin PAK 1805, connecting peptide AGRGSGK [B3Q_A18Q_A21G] (from UniProt P01308 25-53; P01308 90-110) (ligand)”, for which the IR, binding relative to human insulin in assay [2] amounted to 83%.

On to “single-chain insulin PAK 1824, connecting peptide GRGSGK [B1G_B3Q_A18Q_A21G] (from UniProt P01308 25-53; P01308 90-110) (ligand)”, for which the IR, binding relative to human insulin in assay [2] amounted to 75%. Still for that read-out and setting: then “single-chain insulin PAK 1821, connecting peptide TGLGSGK [B3Q_B29R_A18Q_A21G] (from UniProt P01308 25-53; P01308 90-110) (ligand)”, with 128%.

On to “single-chain insulin PAK 1796, connecting peptide AWSGSGK [A18Q_A21G] (from UniProt P01308 25-53; P01308 90-110) (ligand)”, for which, in assay [2], the IR, binding relative to human insulin was found to be 102%. The same measure, in the same setting: to “single-chain insulin PAK 1812, connecting peptide TGLGRGK [A18Q_A21G] (from UniProt P01308 25-53; P01308 90-110) (ligand)” belongs 118%; to “single-chain insulin PAK 1790, connecting peptide VGLMSGK [A18Q_A21G] (from UniProt P01308 25-53; P01308 90-110) (ligand)”, 261%.

“single-chain insulin PAK 1687033, connecting peptide VGSYSGK (from UniProt P01308 25-53; P01308 90-110) (ligand)” had a Human IGF-1 receptor binding relative to human insulin in assay [1] of 0.2%. “single-chain insulin with connecting peptide LGSSGK (SEQ ID NO:113), no PAK number printed (from UniProt P01308 25-53; P01308 90-110) (ligand)”: the IR, binding relative to human insulin in assay [2] came out at 49%.

For “single-chain insulin PAK 1816, connecting peptide AGLGSGQ [B3Q_A18Q] (from UniProt P01308 25-53; P01308 90-110) (ligand)”, the IR, binding relative to human insulin in assay [2] was found to be 37%. Regarding “single-chain insulin PAK 1892, connecting peptide TGLGSGQ [desB1_B3Q_B10A_A18Q] (from UniProt P01308 26-53; P01308 90-110) (ligand)”, the IR, binding relative to human insulin in assay [2] amounted to 38%. The same measure, in the same setting: to “single-chain insulin PAK 1849, connecting peptide TGLGKGR [B29E_A18Q] (from UniProt P01308 25-53; P01308 90-110) (ligand)” belongs 60%. Regarding “single-chain insulin PAK 1800, connecting peptide AGRGSGK [A18Q_A21G] (from UniProt P01308 25-53; P01308 90-110) (ligand)”, in assay [2], the IR, binding relative to human insulin stood at 175%.

In the case of “single-chain insulin PAK 1802, connecting peptide AGRGK [A18Q_A21G] (from UniProt P01308 25-53; P01308 90-110) (ligand)”, the IR, binding relative to human insulin in assay [2] came to 25%. As to “single-chain insulin PAK 1879, connecting peptide VGLSSGQ [B29A_A18Q] (from UniProt P01308 25-53; P01308 90-110) (ligand)”, the IR, binding relative to human insulin in assay [2] came out at 92%. “single-chain insulin PAK 1769020, connecting peptide SVGSSSGK [A18Q_A21G] (from UniProt P01308 25-53; P01308 90-110) (ligand)”: the IR, binding relative to human insulin in assay [2] turned out to be 51%. Turning to “single-chain insulin PAK 1769033, connecting peptide PVGSSSGK [A18Q_A21G] (from UniProt P01308 25-53; P01308 90-110) (ligand)”, the IR, binding relative to human insulin in assay [2] came to 37%. Still for that read-out and setting: then “single-chain insulin PAK 1769053, connecting peptide GVGSSSGK [A18Q_A21G] (from UniProt P01308 25-53; P01308 90-110) (ligand)”, with 37%. On the same count and under the same terms, then “single-chain insulin PAK 1769040, connecting peptide VVGSSSGK [A18Q_A21G] (from UniProt P01308 25-53; P01308 90-110) (ligand)”, with 29%.

Molecule “single-chain insulin PAK 1708, connecting peptide VGSRSGK (from UniProt P01308 25-53; P01308 90-110) (ligand)” gave a Human IGF-1 receptor binding relative to human insulin in assay [1] of 0.2%.

B1: B(1-29)-B27E-B29A-TGLGKGQ-A(1-21)-A18Q Human insulin (PAK1845) (ligand)
chain: FVNQHLCGSHLVEALYLVCGERGFFYEPATGLGKGQGIVEQCCTSICSLYQLEQYCN
modifications: disulfide 19-56, 42-47, 7-43
Take B1: the “IR, binding relative to human insulin” value in assay [3] was found to be 20%.

B2: single-chain insulin PAK 1873, connecting peptide KGLSSGQ [B29A_A18Q] (ligand)
chain: B1 chain with E27T, T30K, G33S, K34S
modifications: disulfide 19-56, 42-47, 7-43
Regarding B2, in assay [3], the “IR, binding relative to human insulin” value worked out at 60%.

B3: single-chain insulin PAK 1735, connecting peptide VGRSSGK [A21G] (ligand)
chain: FVNQHLCGSHLVEALYLVCGERGFFYTPKVGRSSGKGIVEQCCTSICSLYQLENYCG
modifications: disulfide 19-56, 42-47, 7-43
In the case of B3, in assay [3], the “IR, binding relative to human insulin” value was 143%.

B4: B(1-29)-B29A-TGLGKGQ-A(1-21)-A18Q Human insulin (PAK1837) (ligand)
chain: B1 chain with E27T
modifications: disulfide 19-56, 42-47, 7-43
With B4, the “IR, binding relative to human insulin” value in assay [3] was 71%.

B5: single-chain insulin PAK 1861, connecting peptide VGLGKGPGAGK [A18Q_A21G] (ligand)
chain: FVNQHLCGSHLVEALYLVCGERGFFYTPKVGLGKGPGAGKGIVEQCCTSICSLYQLEQYCG
As for B5, in assay [3], the “IR, binding relative to human insulin” value was determined as 36%.

B6: single-chain insulin PAK 1896, connecting peptide VGLSSGQ [B29A_A18Q_A22K] (ligand)
chain: FVNQHLCGSHLVEALYLVCGERGFFYTPAVGLSSGQGIVEQCCTSICSLYQLEQYCNK
modifications: disulfide 19-56, 42-47, 7-43
For the molecule B6, the “IR, binding relative to human insulin” value in assay [3] stood at 38%.
